For 1 substance, affinity results are on record in patent publication US20190160028A1.

The assay addresses Nluc-NS2B (49-66) (named as Nluc-E66stop) (firefly; Dengue virus serotype 2 (DENV2)) [luciferase: P08659].

Sequence of Nluc-NS2B (49-66) (named as Nluc-E66stop) (firefly; Dengue virus serotype 2 (DENV2)) [luciferase: P08659] (P08659 whole entry): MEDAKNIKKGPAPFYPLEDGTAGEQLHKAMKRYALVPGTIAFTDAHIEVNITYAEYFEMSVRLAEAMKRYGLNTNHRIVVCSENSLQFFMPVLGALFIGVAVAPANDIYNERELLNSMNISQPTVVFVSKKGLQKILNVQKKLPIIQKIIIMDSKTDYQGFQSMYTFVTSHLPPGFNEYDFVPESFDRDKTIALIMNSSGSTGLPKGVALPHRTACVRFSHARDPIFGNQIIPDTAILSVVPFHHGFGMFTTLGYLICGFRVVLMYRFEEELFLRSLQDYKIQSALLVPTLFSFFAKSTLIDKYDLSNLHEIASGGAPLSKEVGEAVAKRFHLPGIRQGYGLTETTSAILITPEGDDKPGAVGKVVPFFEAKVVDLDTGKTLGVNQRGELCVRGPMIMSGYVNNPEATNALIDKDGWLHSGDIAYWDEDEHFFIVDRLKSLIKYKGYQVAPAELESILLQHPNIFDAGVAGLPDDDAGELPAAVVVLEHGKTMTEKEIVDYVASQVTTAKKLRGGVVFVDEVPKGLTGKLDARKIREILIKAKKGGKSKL

For “His-tagged maltose-binding protein (MBP) fused to DENV2 NS3 protein (His-MBP-NS3) (from UniProt P14337 1476-1654) (enzyme)”, the affinity is 2.5 µM.
